Experimental findings from patent US7659376B2, “Antibody that binds glyphosate resistance protein” (priority 2002, dated 2010) are described below.

A value given as a limit tells only on which side of the number the result lay.

The subject of assay [1] is E. coli XL1 Blue MRF′. The experiment in a line: Growth of GRG-1 or aroA expressing strains in M63 liquid medium with glyphosate, absorbance at 600 nm at 24 hours. The assay is classed as cell-based. The note with it: M63, +IPTG. The protocol:
In addition, these strains engineered to express either GRG-1 or the wild-type E. coli aroA, were tested in another minimal media, M63, with glyphosate concentrations up to 150 mM. 1×M63 was supplemented with 10 g glucose, 10 mg Thiamine-HCl and 25 mg L-Proline. The strains were grown to saturation (overnight) in Luria Broth (Sambrook and Russell, 2001, supra) then washed two times in M63 media (adapted from Current Protocols in Molecular Biology, Greene Publishing and Wiley-Interscience, New York) before being diluted 1:100 in fresh M63 liquid medium containing 0 to 150 mM glyphosate. High level transcription from the Ptac promoter was stimulated by including 0.1 mM IPTG all of the cultures.
Each culture was grown in 2 mls of media in 10 ml tubes at 37° C. in a shaker. At 24 hours, 300 microliters of the culture was withdrawn and placed into a 96-well assay plate. The absorbance of the culture at 600 nm was measured on a Spectromax 96 well plate reader. The values in Table 8 reflect this experiment at 24 hours (NT not tested).

Assay [2] concerns E. coli XL1 Blue MRF′. Kind of assay: Growth of GRG-1 or aroA expressing strains in M9 liquid medium with glyphosate, absorbance at 600 nm at 8 hours. The assay is classed as cell-based. The note with it: for absorbance of the culture at 600 nm: 8 hours, mean of three cultures. The source says:
Strains engineered to express either GRG-1 or the wild-type E. coli aroA were engineered as described in the following way. A customized expression vector, pPEH304 Cm was constructed. The essential features of pPEH304 Clare the origin of replication from pBR322, a chloramphenicol acetyl transferase gene (for selection and maintenance of the plasmid), the lacI gene, the Ptac promoter and the rrnB transcriptional terminator. The GRG-1 open reading frame was amplified as described in Example 7. […] The aroA open reading frame was amplified by PCR from E. coli strain XL1 Blue MRF′ (Stratagene). During PCR, restriction sites were added to facilitate cloning into pPEH304 Cm.
The PCR products for GRG-1 and aroA were cloned into the expression vector pPEH304 Cm to yield the plasmids pPEH306 and pPEH307, respectively, and transformed into E. coli XL1 Blue MRF′. Correct clones were identified by standard methods known in the art. The sequence of the GRG-1 and aroA open reading frames in expression clones in pPEH306 and pPEH307 were confirmed by DNA sequencing.
Strains were grown to saturation (overnight) in Luria Broth (Sambrook and Russell, 2001, supra) then diluted 1:100 in M9 liquid medium (recipe) containing 0 to 30 mM glyphosate, and supplemented with 10 g glucose, 10 mg Thiamine-HCl and 25 mg L-Proline. High level transcription from the Ptac promoter was stimulated by including 0.1 mM IPTG in a subset of the cultures (noted as +IPTG in Table 7).
Each culture was grown in a 3 ml tube at 37° C. on a culture wheel. There were three replicate tubes of each treatment. After 8 hours of growth, 310 microliters of culture was withdrawn and placed into a 96-well plate. The absorbance of the culture at 600 nm was measured on a Spectramax 96 well plate reader. The experiment was performed in triplicate, and the values in Table 7 reflect the means of three cultures.

Where [3] appears, read: glyphosate concentration 0, 24 hours.
Setting [4] is: glyphosate concentration 5 (mM), 24 hours.
[5] abbreviates: glyphosate concentration 30 (mM), 24 hours.
Setting [6] is: glyphosate concentration 60 (mM), 24 hours.
Where [7] appears, read: +IPTG (0.1 mM), 0 mM glyphosate.
Where [8] appears, read: +IPTG (0.1 mM), 5 mM glyphosate.
[9] abbreviates: +IPTG (0.1 mM), 10 mM glyphosate.
The mark [10] stands for this setting: +IPTG (0.1 mM), 20 mM glyphosate.
Where [11] appears, read: +IPTG (0.1 mM), 30 mM glyphosate.

B1: aroA: wild-type E. coli aroA (EPSP synthase), expressed from plasmid pPEH307 (protein, UniProt P0A6D3 1-427, looked up)
3-phosphoshikimate …: MESLTLQPIARVDGTINLPGSKSVSNRALLLAALAHGKTVLTNLLDSDDVRHMLNALTALGVSYTLSADRTRCEIIGNGGPLHAEGALELFLGNAGTAMRPLAAALCLGSNDIVLTGEPRMKERPIGHLVDALRLGGAKITYLEQENYPPLRLQGGFTGGNVDVDGSVSSQFLTALLMTAPLAPEDTVIRIKGDLVSKPYIDITLNLMKTFGVEIENQHYQQFVVKGGQSYQSPGTYLVEGDASSASYFLAAAAIKGGTVKVTGIGRNSMQGDIRFADVLEKMGATICWGDDYISCTRGELNAIDMDMNHIPDAAMTIATAALFAKGTTTLRNIYNWRVKETDRLFAMATELRKVGAEVEEGHDYIRITPPEKLNFAEIATYNDHRMAMCFSLVALSDTPVTILDPKCTAKTFPDYFEQLARISQAA
As for B1, the “absorbance of the culture at 600 nm” value with E. coli XL1 Blue MRF′ [1] (setting [3]) amounted to 0.5982; in the assay on E. coli XL1 Blue MRF′ [1] (setting [4]), 0.1209; in the assay with E. coli XL1 Blue MRF′ [1] (setting [5]), 0.0276; with E. coli XL1 Blue MRF′ [1] (setting [6]), 0.0298; in the assay with E. coli XL1 Blue MRF′ [2] (setting [7]), 0.075; in the assay on E. coli XL1 Blue MRF′ [2] (setting [8]), 0.068. Further, the “absorbance of the culture at 600 nm” value with E. coli XL1 Blue MRF′ [2] (setting [9]) was determined as 0.063; with E. coli XL1 Blue MRF′ [2] (setting [10]), 0.056; in the assay with E. coli XL1 Blue MRF′ [2] (setting [11]), 0.052; with E. coli XL1 Blue MRF′ [2] (no IPTG, 0 mM glyphosate) it was 0.095; with E. coli XL1 Blue MRF′ [2] (no IPTG, 5 mM glyphosate), 0.048; with E. coli XL1 Blue MRF′ [2] (no IPTG, 10 mM glyphosate), 0.046. Besides, the “absorbance of the culture at 600 nm” value with E. coli XL1 Blue MRF′ [2] (no IPTG, 20 mM glyphosate) stood at 0.047; in the assay on E. coli XL1 Blue MRF′ [2] (no IPTG, 30 mM glyphosate), 0.048. Also, the “glyphosate concentrations that inhibit growth of expressing cells” value with E. coli XL1 Blue MRF′ [2] (summary of Table 7) is ≥ 10 mM.

B2: GRG-1: glyphosate resistance protein (SEQ ID NO:2), homologous to EPSP synthases; expressed in E. coli from plasmid pPEH306 (protein)
chain: MKVTIQPGDLTGILQSPASKSSMQRACAAALVAKGISEIINPGHSNDDKAARDIVSRLGARLEDQPDGSLQITSEGVKPVAPFIDCGESGLSIRMFTPIVALSKEEVTIKGSGSLVTRPMDFFDEILPHLGVKVKSNQGKLPLVIQGPLKPADVTVDGSLSSQFLTGLLLAYAAADASDVAIKVTNLKSRPYIDLTLDVMKRFGLKTPENRNYEEFYFKAGNVYDETKMQRYTVEGDWSGGAFLLVAGAIAGPITVRGLDIASTQADKAIVQALMSANAGIAIDAKEIKLHPADLNAFEFDATDCPDLFPPLVALASYCKGETKIKGVSRLAHKESDRGLTLQDEFGKMGVEIHLEGDLMRVIGGKGVKGAEVSSRHDHRIAMACAVAALKAVGETTIEHAEAVNKSYPDFYSDLKQLGGVVSLNHQFNFS
modifications: Enterobacteriaceae
notes: expressed in E. coli from plasmid pPEH306
As for B2, the “absorbance of the culture at 600 nm” value with E. coli XL1 Blue MRF′ [1] (setting [3]) is given as 0.4943; in the assay on E. coli XL1 Blue MRF′ [1] (setting [4]) it was 0.7192; in the assay with E. coli XL1 Blue MRF′ [1] (setting [5]), 0.7884; in the assay on E. coli XL1 Blue MRF′ [1] (setting [6]) it was 0.789; with E. coli XL1 Blue MRF′ [1] (glyphosate concentration 150 (mM), 24 hours), 0.951; in the assay with E. coli XL1 Blue MRF′ [2] (setting [7]), 0.100. In addition, the “absorbance of the culture at 600 nm” value in the assay with E. coli XL1 Blue MRF′ [2] (setting [8]) is 0.104; in the assay with E. coli XL1 Blue MRF′ [2] (setting [9]), 0.117; in the assay on E. coli XL1 Blue MRF′ [2] (setting [10]), 0.125; with E. coli XL1 Blue MRF′ [2] (setting [11]), 0.135; in the assay with E. coli XL1 Blue MRF′ [2] (no IPTG, 0 mM glyphosate), 0.092; with E. coli XL1 Blue MRF′ [2] (no IPTG, 5 mM glyphosate), 0.102. Moreover, the “absorbance of the culture at 600 nm” value with E. coli XL1 Blue MRF′ [2] (no IPTG, 10 mM glyphosate) is listed as 0.110; with E. coli XL1 Blue MRF′ [2] (no IPTG, 20 mM glyphosate) it was 0.112; in the assay on E. coli XL1 Blue MRF′ [2] (no IPTG, 30 mM glyphosate), 0.104. In addition, in the assay with E. coli XL1 Blue MRF′ [2] (summary of Table 7), the “glyphosate concentration in whose presence survival and growth of E. coli is allowed” value is listed as 30 mM.
